Assays:
[1] = target: IL2Rβ and common γ chain expressed on 32Dβ cells; assay: cell-based or functional assay
TGFβ1 (R&D systems) = TGFβ1 (R&D systems) (UniProt P01137); assay: cell-based or functional assay
UniProt P01137, sequence (P01137 279-390 limits assumed): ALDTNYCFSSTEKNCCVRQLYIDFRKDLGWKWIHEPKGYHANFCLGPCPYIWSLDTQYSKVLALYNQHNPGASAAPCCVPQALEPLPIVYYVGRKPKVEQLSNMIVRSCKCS

EC50 of 32Dβ cell proliferation (WST1, absorbance at 450 nM) [1] [nM]	IC50 for TGFβ1 activity in HEK-Blue TGFβ cells (QUANTI-Blue OD at 620-655 nM) (TGFβ1 (R&D systems)) [nM]	Substance
0.0106	–	recombinant IL-15 (from UniProt P40933 49-162) (ligand)
–	0.461	TGFR-Fc (R&D Systems) (Fc fusion)

— patent US20250108112A1
